{"source": "patent US7598032B2", "about": "“Thermostable DNA polymerases incorporating nucleoside triphosphates labeled with fluorescent dyes” (Roche Molecular Systems, priority 1997, dated 2009)", "tested_on": "primer DG48 annealed to M13 mp18 template", "assay": "limiting template, primer extension competition assay (ddNTP incorporation assay)", "assay_type": "biochemical", "settings": "ratio of concentrations for 50% inhibition by Zowie-ddCTP vs. ddCTP", "experimental": "The ability of the enzymes of this invention to efficiently incorporate nucleotides labeled with fluorescein family dyes is measured by ddNTP incorporation assays. One such assay is a primer extension competition assay conducted under conditions of limiting template. In this assay, a primer DG48 (5′-[…]), (SEQ ID NO: 11), bound to M13 mp18 template (Innis et al., 1988, Proc. Natl. Acad. Sci. USA 85:9436) is extended in the presence of [α-^33P]dCTP and excess enzyme with various levels of a fluorescently labeled ddNTP, Zowie-ddCTP. Because the incorporation of a ddCTP residue terminates the extension reaction, the more readily a DNA polymerase incorporates a ddCTP into an extended primer, the less [α-^33P]dCTP can be incorporated. Thus, as the efficiency of fluorescently labeled ddCTP incorporation increases, the extent of inhibition of DNA synthesis is increased. The reactions were also performed with various levels of an unlabeled ddCTP. […]\nThe relative abilities of G46D F667Y Taq, G46D F667Y E681K Taq and F730Y Tma30 DNA polymerases to incorporate a fluorescein dye family-labeled ddCTP were compared by use of a limiting template, primer extension competition assay. […] In this competition assay, because the incorporation of a ddCTP terminates the extension reaction, the more readily the polymerase incorporates a ddCTP into an extended primer, the less [α-^33P]dCTP can be incorporated. […]"}
{"molecule": "G46D F667Y E681K Taq: thermostable Taq DNA polymerase with G46D, F667Y and E681K mutations, encoded by plasmid pLK113 (protein, UniProt P19821 1-832, looked up, variant G46D F667Y E681K) DNA polymerase I, thermostable: MRGMLPLFEPKGRVLLVDGHHLAYRTFHALKGLTTSRGEPVQAVYDFAKSLLKALKEDGDAVIVVFDAKAPSFRHEAYGGYKAGRAPTPEDFPRQLALIKELVDLLGLARLEVPGYEADDVLASLAKKAEKEGYEVRILTADKDLYQLLSDRIHVLHPEGYLITPAWLWEKYGLRPDQWADYRALTGDESDNLPGVKGIGEKTARKLLEEWGSLEALLKNLDRLKPAIREKILAHMDDLKLSWDLAKVRTDLPLEVDFAKRREPDRERLRAFLERLEFGSLLHEFGLLESPKALEEAPWPPPEGAFVGFVLSRKEPMWADLLALAAARGGRVHRAPEPYKALRDLKEARGLLAKDLSVLALREGLGLPPGDDPMLLAYLLDPSNTTPEGVARRYGGEWTEEAGERAALSERLFANLWGRLEGEERLLWLYREVERPLSAVLAHMEATGVRLDVAYLRALSLEVAEEIARLEAEVFRLAGHPFNLNSRDQLERVLFDELGLPAIGKTEKTGKRSTSAAVLEALREAHPIVEKILQYRELTKLKSTYIDPLPDLIHPRTGRLHTRFNQTATATGRLSSSDPNLQNIPVRTPLGQRIRRAFIAEEGWLLVALDYSQIELRVLAHLSGDENLIRVFQEGRDIHTETASWMFGVPREAVDPLMRRAAKTINYGVLYGMSAHRLSQKLAIPYEEAQAFIERYFQSFPKVRAWIEKTLEEGRRRGYVETLFGRRRYVPDLEARVKSVREAAERMAFNMPVQGTAADLMKLAMVKLFPRLEEMGARMLLQVHDELVLEAPKERAEAVARLAKEVMEGVYPLAVPLEVEVGIGEDWLSAKE", "values": [{"measurement": "Zowie-ddCTP/ddCTP (ratio of concentrations for 50% inhibition)", "result": 1.2}]}
